In patent publication US20150203579A1 (Regeneron, published 2015):
Read-outs that look alike come from different tables or passages of the source.

T1: monkey PD-1 with mFc (monkey)
T1 construct: also called monkey PD-1-mFc; monkey PD-1 dimer
T1 chain: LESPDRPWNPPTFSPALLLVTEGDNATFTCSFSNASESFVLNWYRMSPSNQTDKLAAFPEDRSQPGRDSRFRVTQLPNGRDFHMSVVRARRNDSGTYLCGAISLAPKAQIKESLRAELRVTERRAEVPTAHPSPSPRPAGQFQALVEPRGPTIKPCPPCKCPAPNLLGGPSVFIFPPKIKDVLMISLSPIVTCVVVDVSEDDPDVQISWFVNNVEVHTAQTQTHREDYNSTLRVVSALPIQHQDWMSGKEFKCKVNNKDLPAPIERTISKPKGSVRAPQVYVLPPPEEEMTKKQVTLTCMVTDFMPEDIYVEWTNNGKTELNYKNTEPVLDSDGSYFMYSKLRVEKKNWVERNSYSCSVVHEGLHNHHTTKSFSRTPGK


How the values were obtained:
[1] = target: PD-1 chimera: extracellular domain of human PD-1 with trans-membrane and cytoplasmic domains of human CD300a, … (human, UniProt Q9UGN4 181-299, limits assumed); test: cell-based or functional assay
[2] = target: T2, recombinant human PD-1 expressed with a C-terminal myc-myc-hexahistidine tag (human); test: SPR (Biacore), mAb captured, hPD-1-MMH injected, 25 C;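 also: rate constants obtained by fitting sensorgrams to a 1:1 binding model, KD derived as kd/ka and half-life as ln2/(60·kd) in minutes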
T2 construct: also called hPD-1-MMH; human PD-1-MMH

[3] = target: T3, full length human PD-1 on HEK293/hPD-1 cells (human, UniProt Q15116 25-288); test: FACS, 100 nM mAb
[4] = target: T4, PD-1 chimera: extracellular domain of human PD-1 with trans-membrane and cytoplasmic domains of human CD300a, … (human, UniProt Q9UGN4 181-299, limits assumed); test: cell-based or functional assay; remark: listed apart in the source
[5] = target: T1, monkey PD-1 with mFc; test: SPR, captured mAb, 25 C;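 also: purified anti-PD-1 antibodies tested on Biacore 4000 or T200 instruments, rate constants obtained via 1:1 binding model fit, with KD as kd/ka and half-life as ln2/(60·kd)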
[6] = target: T1, monkey PD-1 with mFc; test: SPR, captured mAb, 37 C;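 also: Real-time Biacore surface plasmon resonance biosensor readout of PD-1 reagent binding to purified anti-PD-1 monoclonal antibodies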
[7] = target: T3, full length human PD-1 on HEK293/hPD-1 …; test: FACS, 100 nM mAb, HEK293/hPD-1 cells;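 also: antibodies incubated with cells for 15-30 min on ice, bound antibody detected through a secondary F(ab′)2 by flow cytometry, with parental HEK293 cells tested in parallel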
[8] = target: T3, full length human PD-1 on HEK293/hPD-1 …; test: FACS dose response, HEK293/hPD-1 cells
[9] = target: T5, recombinant human PD-1 dimer expressed with a C-terminal mouse IgG2a Fc tag (human); test: competition ELISA: 1.5 nM hPD-1-mFc to coated hPD-L1-hFc
T5 construct: also called hPD-1-mFc

[10] = target: T6, dimeric biotinylated human PD-1 protein with a C-terminal human Fc tag (human, biotinylated (sites not given)); test: competition ELISA: 200 pM biot-hPD-1-hFc to coated hPD-L1-mFc
T6 construct: also called biot-hPD-1-hFc

[11] = target: T7, recombinant human PD-1 expressed with a C-terminal human IgG1 Fc tag (human); test: SPR Biacore 3000: 100 nM hPD-1.hFc + 500 nM mAb to captured hPD-L1.mFc;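 also: inhibition study with anti-PD-1 mAbs, SPR responses tracked in real time and read at the close of each step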
T7 construct: also called hPD-1-hFc; hPD1-hFc

[12] = target: T8, recombinant human PD-L1 expressed with a C-terminal mouse IgG2a Fc tag (human); test: SPR Biacore 3000: 500 nM mAb alone (no hPD-1.hFc) over captured hPD-L1.mFc surface, control
T8 construct: also called hPD-L1-mFc; hPD-L1.mFc

[13] = target: T5, recombinant human PD-1 dimer expressed …; test: competition ELISA: 1.5 nM hPD-1-mFc to coated hPD-L1-hFc; * below theoretical bottom 7.5E-10 M
[14] = target: T6, dimeric biotinylated human PD-1 protein …; test: competition ELISA: 200 pM biot-hPD-1-hFc to coated hPD-L1-mFc; * below theoretical bottom 1.0E-10 M
[15] = target: T5, recombinant human PD-1 dimer expressed …; test: competition ELISA: 100 pM hPD-1-mFc to coated hPD-L2-hFc
[16] = target: T4, PD-1 chimera: extracellular domain of …; test: cell-based or functional assay; remark: listed apart in the source
[17] = target: T3, full length human PD-1 on HEK293/hPD-1 …; test: FACS dose response, HEK293/hPD-1 cells; remark: listed apart in the source

| Emax, AP1-Luc signal at 100 nM antibody (% of signal without anti-PD-1 antibody) [1] | ratio of MFI HEK293/hPD-1 to HEK293 parental cells [3] | Emax mean [%] @ 100 nM [4] | 100 nM Monkey PD-1-mFc Bound (RU) [5] | Kd [5] | koff [5] | kon [5] | t1/2 [5] | 100 nM Monkey PD-1-mFc Bound (RU) [6] | Kd [6] | koff [6] | kon [6] | t1/2 [6] | MFI [7] | EC50 [8] | Max Geom. Mean MFI @ 100 nM [8] | % blocking at 200 nM antibody [9] | Binder | further results |
| --- | --- | --- | --- | --- | --- | --- | --- | --- | --- | --- | --- | --- | --- | --- | --- | --- | --- | --- |
| 163% | – | – | – | – | – | – | – | – | – | – | – | – | – | – | – | – | H4xH9119P2 (antibody, human IgG4, V domains shown, H4xH: modified human IgG4 Fc) VH: EVQLVESGGGLVQPGRSLRLSCAASGFTFEDYAMHWVRQAPGKGLEWVSGIGWSNVKIGYADSVKGRFTISRDNVRNSLYLQMNSLRTEDTAFYYCVKAYTSMLTLYFDYWGQGTLVTVSS VL: not shown | Kd [2]: 15.6 nM; koff [2]: 0.00122 s⁻¹; kon [2]: 78400 M⁻¹ s⁻¹; t½ [2]: 9.5 min |
| – | 84 | 163% | 83 RU | 1.05 nM | 0.000172 s⁻¹ | 163000 M⁻¹ s⁻¹ | 67 min | 40 RU | 3.17 nM | 0.000885 s⁻¹ | 279000 M⁻¹ s⁻¹ | 13 min | 9140 MFI | 0.348 nM | 37800 MFI | 78% | H4xH9119P2 (antibody, V domains shown, human IgG4 Fc with 2 or more amino acid changes (US20100331527)) VH: EVQLVESGGGLVQPGRSLRLSCAASGFTFEDYAMHWVRQAPGKGLEWVSGIGWSNVKIGYADSVKGRFTISRDNVRNSLYLQMNSLRTEDTAFYYCVKAYTSMLTLYFDYWGQGTLVTVSS VL: not shown | Concentration (M) of Antibody at 150% activation [4]: 1.11e-08 M; % blocking at 50 nM antibody [10]: 96%; % Blocking [11]: 105%; binding of the mixture (RU) [11]: -5 RU; 500 nM of anti-PD-1 monoclonal antibody (RU) [12]: -5 RU; IC50 [13]: 0.2 nM; IC50 [14]: 0.082 nM |
| – | 70.8 | 138% | 115 RU | 0.754 nM | 0.000184 s⁻¹ | 243000 M⁻¹ s⁻¹ | 63 min | 84 RU | 2.29 nM | 0.00113 s⁻¹ | 494000 M⁻¹ s⁻¹ | 10 min | 7200 MFI | 0.668 nM | 33700 MFI | 67% | H4xH9048P2 (antibody, V domains shown, human IgG4 Fc with 2 or more amino acid changes (US20100331527)) VH: QVQLVQSGAEVKRPGSSVKVSCKVSGVTFRNFAIIWVRQAPGQGLEWMGGIIPFFSAANYAQSFQGRVTITPDESTSTAFMELASLRSEDTAVYYCAREGERGHTYGFDYWGQGTLVTVSS VL: not shown | IC50 [9]: 3.3 nM; % blocking at 100 nM antibody [15]: 98%; IC50 [15]: 0.14 nM |
| – | – | – | – | – | – | – | – | – | – | – | – | – | – | – | – | – | H4H9048P2 (antibody, human IgG4 S228P, kappa, V domains shown, human IgG4 Fc) VH: QVQLVQSGAEVKRPGSSVKVSCKVSGVTFRNFAIIWVRQAPGQGLEWMGGIIPFFSAANYAQSFQGRVTITPDESTSTAFMELASLRSEDTAVYYCAREGERGHTYGFDYWGQGTLVTVSS VL: not shown | Emax mean [%] @ 100 nM [16]: 134%; EC50 [17]: 1.6 nM; Max Geom. Mean MFI @ 100 nM [17]: 39800 MFI |
| 150% | – | – | – | – | – | – | – | – | – | – | – | – | – | – | – | – | H4H9008P (antibody, human IgG4 S228P, kappa, V domains shown) VH: EVQLVESGGGLVRPGGSLRLSCAASGFTFSTYAMAWVRQTPGKGLEGVSAIGGSGDSTYYVDSVKGRFTISRDNSKSTLFLQMNSLRAEDTAVYYCVKVRNYDGSFDIWGQGTMVTVSS VL: not shown | – |
